# Test results from US20150258192A1, “COMPOSITIONS AND METHODS FOR PREVENTING OR TREATING CHRONIC LUNG ALLOGRAFT DYSFUNCTION (CLAD) AND IDIOPATHIC PULMONARY FIBROSIS (IPF)” (priority 2014, published 2015).
# No end group written: not given here.
# How the values were obtained:
# Assay in all cases: Kinase Profiling Assay
# Assay type in all cases: biochemical
# Settings in all cases: peptide 100 μM
# Ret(h) = Ret(h) (Homo sapiens, UniProt P07949)
# Summary of the method: (§1)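 Duplicate wells; [radiolabeled] ATP phosphate onto cationic substrate; filter capture (negatively charged membrane); scintillation count; % of 100% activity control. Selectivity screen of MK2 peptide inhibitors, 266 human kinases.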
# MST3(h) = biological target: T1, MST3(h) (Homo sapiens, UniProt Q9Y6E0)
# T1 construct: purchased Millipore
# T1 sequence (Q9Y6E0 whole entry): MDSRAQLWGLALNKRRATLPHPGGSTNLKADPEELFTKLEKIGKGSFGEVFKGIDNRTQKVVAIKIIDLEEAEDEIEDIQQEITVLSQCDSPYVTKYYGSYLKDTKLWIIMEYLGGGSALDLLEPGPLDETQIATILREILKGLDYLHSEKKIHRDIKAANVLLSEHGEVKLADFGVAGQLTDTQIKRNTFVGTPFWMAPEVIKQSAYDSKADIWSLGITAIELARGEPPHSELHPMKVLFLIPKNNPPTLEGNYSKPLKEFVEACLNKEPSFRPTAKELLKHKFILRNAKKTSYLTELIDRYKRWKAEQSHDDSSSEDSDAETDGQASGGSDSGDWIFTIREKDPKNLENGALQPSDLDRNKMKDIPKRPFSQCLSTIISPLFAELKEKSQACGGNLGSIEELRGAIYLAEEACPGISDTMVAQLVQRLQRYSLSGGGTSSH
# Summary of the method: as §1
# Flt1(h) = Flt1(h) (Homo sapiens, UniProt P17948)
# Flt1(h), sequence (P17948 27-1338): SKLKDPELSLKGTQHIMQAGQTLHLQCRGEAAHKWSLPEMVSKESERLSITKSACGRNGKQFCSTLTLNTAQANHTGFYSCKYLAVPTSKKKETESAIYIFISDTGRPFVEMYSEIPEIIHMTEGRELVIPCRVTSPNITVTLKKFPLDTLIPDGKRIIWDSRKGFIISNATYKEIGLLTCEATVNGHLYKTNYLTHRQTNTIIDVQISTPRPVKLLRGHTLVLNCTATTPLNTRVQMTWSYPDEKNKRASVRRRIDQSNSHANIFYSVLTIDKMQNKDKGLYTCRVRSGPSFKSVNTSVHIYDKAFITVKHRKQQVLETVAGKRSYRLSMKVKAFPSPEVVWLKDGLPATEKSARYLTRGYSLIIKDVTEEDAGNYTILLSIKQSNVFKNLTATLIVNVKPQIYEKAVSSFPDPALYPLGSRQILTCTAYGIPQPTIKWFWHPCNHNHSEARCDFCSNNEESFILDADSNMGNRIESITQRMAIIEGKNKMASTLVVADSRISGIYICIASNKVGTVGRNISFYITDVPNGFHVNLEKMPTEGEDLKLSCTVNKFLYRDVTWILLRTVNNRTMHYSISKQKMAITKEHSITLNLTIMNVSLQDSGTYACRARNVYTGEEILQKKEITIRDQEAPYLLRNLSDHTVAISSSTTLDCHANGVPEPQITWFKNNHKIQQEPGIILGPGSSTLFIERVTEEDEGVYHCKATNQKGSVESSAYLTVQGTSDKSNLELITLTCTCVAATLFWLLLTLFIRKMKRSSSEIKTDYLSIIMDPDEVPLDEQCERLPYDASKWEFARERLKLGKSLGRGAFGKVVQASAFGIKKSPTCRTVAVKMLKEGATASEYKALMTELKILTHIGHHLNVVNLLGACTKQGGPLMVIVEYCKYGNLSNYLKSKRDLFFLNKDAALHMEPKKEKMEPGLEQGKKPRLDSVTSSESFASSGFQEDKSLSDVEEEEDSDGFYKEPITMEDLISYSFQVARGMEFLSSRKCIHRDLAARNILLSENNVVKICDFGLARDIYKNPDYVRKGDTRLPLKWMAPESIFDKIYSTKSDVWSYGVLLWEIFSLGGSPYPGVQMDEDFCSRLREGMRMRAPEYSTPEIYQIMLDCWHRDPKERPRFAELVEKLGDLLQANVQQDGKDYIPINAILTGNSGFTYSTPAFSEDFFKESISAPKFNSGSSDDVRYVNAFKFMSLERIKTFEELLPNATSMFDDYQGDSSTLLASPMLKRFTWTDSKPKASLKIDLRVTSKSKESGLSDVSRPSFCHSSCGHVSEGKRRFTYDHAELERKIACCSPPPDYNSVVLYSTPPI
# Summary of the method: as §1
# IR(h) = biological target: T2, IR(h) (Homo sapiens, UniProt P06213)
# T2 construct: purchased Millipore
# Summary of the method: as §1
# Rsk1(h) = Rsk1(h) (Homo sapiens, UniProt Q15418)
# Rsk1(h), sequence (Q15418 whole entry): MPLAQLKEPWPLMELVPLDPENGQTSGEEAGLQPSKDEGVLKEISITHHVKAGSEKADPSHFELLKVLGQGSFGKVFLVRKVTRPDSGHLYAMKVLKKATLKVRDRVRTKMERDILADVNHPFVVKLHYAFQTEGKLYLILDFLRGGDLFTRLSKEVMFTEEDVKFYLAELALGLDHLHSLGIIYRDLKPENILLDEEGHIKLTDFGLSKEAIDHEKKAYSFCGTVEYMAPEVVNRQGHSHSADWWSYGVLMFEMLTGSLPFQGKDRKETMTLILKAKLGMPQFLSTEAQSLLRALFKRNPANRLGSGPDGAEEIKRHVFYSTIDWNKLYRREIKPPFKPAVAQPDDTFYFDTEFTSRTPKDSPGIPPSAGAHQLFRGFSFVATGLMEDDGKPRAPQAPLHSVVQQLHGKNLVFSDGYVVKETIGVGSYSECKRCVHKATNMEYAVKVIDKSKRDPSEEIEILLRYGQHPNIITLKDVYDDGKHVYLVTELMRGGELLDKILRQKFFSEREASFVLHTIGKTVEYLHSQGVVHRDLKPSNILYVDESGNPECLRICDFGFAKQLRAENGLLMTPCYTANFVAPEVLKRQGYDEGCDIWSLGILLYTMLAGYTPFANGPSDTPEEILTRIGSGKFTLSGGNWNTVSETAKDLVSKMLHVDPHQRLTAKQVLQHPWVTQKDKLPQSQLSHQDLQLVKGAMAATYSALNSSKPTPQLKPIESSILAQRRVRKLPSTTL
# Summary of the method: as §1
# CaMKIδ(h) = CaMKIδ(h) (Homo sapiens, UniProt Q8IU85)
# CaMKIδ(h), sequence (Q8IU85 whole entry): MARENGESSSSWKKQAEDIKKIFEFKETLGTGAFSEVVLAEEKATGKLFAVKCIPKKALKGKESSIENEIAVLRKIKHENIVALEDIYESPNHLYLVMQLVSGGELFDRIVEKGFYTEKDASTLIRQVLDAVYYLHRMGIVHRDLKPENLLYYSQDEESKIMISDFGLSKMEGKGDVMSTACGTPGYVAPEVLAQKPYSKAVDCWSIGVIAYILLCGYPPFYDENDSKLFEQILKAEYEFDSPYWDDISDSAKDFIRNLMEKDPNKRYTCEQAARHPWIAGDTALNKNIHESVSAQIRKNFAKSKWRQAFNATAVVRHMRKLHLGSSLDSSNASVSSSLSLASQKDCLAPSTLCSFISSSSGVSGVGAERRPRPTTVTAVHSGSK
# Summary of the method: as §1
# GSK3α(h) = biological target: T3, GSK3α(h) (Homo sapiens, UniProt P49840)
# T3 construct: purchased Millipore
# T3 sequence (P49840 whole entry): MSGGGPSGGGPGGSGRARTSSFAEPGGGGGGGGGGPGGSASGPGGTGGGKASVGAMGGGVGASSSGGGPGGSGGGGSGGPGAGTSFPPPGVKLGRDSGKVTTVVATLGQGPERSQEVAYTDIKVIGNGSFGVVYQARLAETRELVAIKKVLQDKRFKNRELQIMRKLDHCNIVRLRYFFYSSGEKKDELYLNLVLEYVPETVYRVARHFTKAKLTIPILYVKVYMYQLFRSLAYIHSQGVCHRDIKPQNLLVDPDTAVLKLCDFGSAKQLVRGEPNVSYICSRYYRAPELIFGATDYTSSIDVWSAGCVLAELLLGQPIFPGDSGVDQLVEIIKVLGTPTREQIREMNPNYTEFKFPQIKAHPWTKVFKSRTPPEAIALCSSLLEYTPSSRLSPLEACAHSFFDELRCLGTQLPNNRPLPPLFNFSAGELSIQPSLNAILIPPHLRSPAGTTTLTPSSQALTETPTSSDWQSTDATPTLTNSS
# Summary of the method: as §1
# PKCζ(h) = biological target: T4, PKCζ(h) (Homo sapiens, UniProt Q05513)
# T4 sequence (Q05513 1-592): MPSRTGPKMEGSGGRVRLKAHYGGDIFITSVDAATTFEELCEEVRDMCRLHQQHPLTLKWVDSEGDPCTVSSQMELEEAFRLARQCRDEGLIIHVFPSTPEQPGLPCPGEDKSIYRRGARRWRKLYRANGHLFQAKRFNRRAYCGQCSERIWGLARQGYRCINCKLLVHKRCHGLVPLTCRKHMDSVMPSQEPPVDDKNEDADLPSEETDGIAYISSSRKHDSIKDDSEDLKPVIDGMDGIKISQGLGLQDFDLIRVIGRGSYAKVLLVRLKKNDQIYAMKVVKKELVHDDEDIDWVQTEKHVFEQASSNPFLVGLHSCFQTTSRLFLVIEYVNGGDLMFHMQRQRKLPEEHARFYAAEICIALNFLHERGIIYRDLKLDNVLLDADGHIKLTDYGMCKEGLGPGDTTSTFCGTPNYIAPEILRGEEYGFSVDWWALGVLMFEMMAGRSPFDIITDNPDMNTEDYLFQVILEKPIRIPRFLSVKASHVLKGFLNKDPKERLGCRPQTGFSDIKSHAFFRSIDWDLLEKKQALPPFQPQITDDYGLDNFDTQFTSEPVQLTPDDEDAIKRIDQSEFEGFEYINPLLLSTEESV
# Summary of the method: as §1
# Mnk2(h) = biological target: T5, Mnk2(h) (Homo sapiens, UniProt Q9HBH9)
# T5 construct: purchased Millipore
# T5 sequence (Q9HBH9 whole entry): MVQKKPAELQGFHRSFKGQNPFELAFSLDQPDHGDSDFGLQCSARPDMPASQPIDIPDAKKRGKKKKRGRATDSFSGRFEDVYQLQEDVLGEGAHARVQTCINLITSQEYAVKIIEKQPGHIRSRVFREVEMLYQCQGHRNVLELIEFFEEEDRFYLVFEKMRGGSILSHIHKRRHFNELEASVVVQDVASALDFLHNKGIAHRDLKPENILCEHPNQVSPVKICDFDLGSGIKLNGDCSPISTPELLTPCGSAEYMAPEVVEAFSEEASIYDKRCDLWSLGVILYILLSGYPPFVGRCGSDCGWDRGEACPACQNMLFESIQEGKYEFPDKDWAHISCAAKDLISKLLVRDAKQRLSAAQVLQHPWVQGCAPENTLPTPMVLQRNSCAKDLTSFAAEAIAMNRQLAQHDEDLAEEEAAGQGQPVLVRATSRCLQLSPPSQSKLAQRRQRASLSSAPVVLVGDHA
# Summary of the method: as §1
# SAPK3(h) = biological target: T6, SAPK3(h) (Homo sapiens, UniProt P53778)
# T6 construct: purchased Millipore
# T6 sequence (P53778 1-367): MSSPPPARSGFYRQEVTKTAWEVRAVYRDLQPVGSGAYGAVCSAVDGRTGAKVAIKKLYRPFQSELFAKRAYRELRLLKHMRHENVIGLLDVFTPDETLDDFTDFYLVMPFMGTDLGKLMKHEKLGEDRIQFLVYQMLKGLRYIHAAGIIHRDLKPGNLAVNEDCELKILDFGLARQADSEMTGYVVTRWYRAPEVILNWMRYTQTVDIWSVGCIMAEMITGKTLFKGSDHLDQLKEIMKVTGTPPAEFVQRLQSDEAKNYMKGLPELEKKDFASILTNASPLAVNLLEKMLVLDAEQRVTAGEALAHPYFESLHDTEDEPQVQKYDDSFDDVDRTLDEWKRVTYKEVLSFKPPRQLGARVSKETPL
# Summary of the method: as §1
# NLK(h) = biological target: T7, NLK(h) (Homo sapiens, UniProt Q9UBE8)
# T7 construct: purchased Millipore
# T7 sequence (Q9UBE8 1-527): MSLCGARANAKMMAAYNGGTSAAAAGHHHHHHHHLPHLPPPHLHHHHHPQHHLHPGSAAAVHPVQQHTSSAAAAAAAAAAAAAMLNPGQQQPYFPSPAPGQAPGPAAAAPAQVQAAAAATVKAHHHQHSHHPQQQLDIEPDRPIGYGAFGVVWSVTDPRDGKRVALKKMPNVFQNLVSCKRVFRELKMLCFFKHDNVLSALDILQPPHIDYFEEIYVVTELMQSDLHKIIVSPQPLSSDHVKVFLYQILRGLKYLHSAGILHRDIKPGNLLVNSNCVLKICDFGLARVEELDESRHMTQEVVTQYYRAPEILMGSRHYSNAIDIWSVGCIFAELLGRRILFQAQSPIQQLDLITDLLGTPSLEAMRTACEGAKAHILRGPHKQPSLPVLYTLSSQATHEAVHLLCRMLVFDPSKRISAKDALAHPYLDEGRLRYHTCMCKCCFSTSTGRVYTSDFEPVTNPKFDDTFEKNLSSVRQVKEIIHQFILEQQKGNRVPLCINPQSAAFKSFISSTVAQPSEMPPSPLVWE
# Summary of the method: as §1
Sequence,% activity (Ret(h)) [%],% activity (MST3(h)) [%],% activity (Flt1(h)) [%],% activity (IR(h)) [%],% activity (Rsk1(h)) [%],% activity (CaMKIδ(h)) [%],% activity (GSK3α(h)) [%],% activity (PKCζ(h)) [%],% activity (Mnk2(h)) [%],% activity (SAPK3(h)) [%],% activity (NLK(h)) [%]
KAFAKLAARLYRKALARQLGVAA [MMI-0400],145,36,48,85,54,17,164,75,86,79,90
FAKLAARLYRKALARQLGVAA [MMI-0300],140,45,69,96,46,10,157,81,89,84,87
YARAAARQARAKALARQLGVAA [MMI-0100],108,,,,86,,,82,,,100
HRRIKAWLKKIKALARQLGVAA (Mammal) [MMI-0500],174,4,27,95,34,0,175,7,6,24,19
YARAAARQARAKALNRQLGVA (Mammal) [MMI-0200],96,95,96,90,,47,,98,,97,
